B1: Cleavage and polyadenylation specificity factor subunit 2 (Homo sapiens), Q9P2I0 (parent)
chain: MTSIIKLTTLSGVQEESALCYLLQVDEFRFLLDCGWDEHFSMDIIDSLRKHVHQIDAVLLSHPDPLHLGALPYAVGKLGLNCAIYATIPVYKMGQMFMYDLYQSRHNTEDFTLFTLDDVDAAFDKIQQLKFSQIVNLKGKGHGLSITPLPAGHMIGGTIWKIVKDGEEEIVYAVDFNHKREIHLNGCSLEMLSRPSLLITDSFNATYVQPRRKQRDEQLLTNVLETLRGDGNVLIAVDTAGRVLELAQLLDQIWRTKDAGLGVYSLALLNNVSYNVVEFSKSQVEWMSDKLMRCFEDKRNNPFQFRHLSLCHGLSDLARVPSPKVVLASQPDLECGFSRDLFIQWCQDPKNSIILTYRTTPGTLARFLIDNPSEKITEIELRKRVKLEGKELEEYLEKEKLKKEAAKKLEQSKEADIDSSDESDIEEDIDQPSAHKTKHDLMMKGEGSRKGSFFKQAKKSYPMFPAPEERIKWDEYGEIIKPEDFLVPELQATEEEKSKLESGLTNGDEPMDQDLSDVPTKCISTTESIEIKARVTYIDYEGRSDGDSIKKIINQMKPRQLIIVHGPPEASQDLAECCRAFGGKDIKVYMPKLHETVDATSETHIYQVRLKDSLVSSLQFCKAKDAELAWIDGVLDMRVSKVDTGVILEEGELKDDGEDSEMQVEAPSDSSVIAQQKAMKSLFGDDEKETGEESEIIPTLEPLPPHEVPGHQSVFMNEPRLSDFKQVLLREGIQAEFVGGVLVCNNQVAVRRTETGRIGLEGCLCQDFYRIRDLLYEQYAIV
partner: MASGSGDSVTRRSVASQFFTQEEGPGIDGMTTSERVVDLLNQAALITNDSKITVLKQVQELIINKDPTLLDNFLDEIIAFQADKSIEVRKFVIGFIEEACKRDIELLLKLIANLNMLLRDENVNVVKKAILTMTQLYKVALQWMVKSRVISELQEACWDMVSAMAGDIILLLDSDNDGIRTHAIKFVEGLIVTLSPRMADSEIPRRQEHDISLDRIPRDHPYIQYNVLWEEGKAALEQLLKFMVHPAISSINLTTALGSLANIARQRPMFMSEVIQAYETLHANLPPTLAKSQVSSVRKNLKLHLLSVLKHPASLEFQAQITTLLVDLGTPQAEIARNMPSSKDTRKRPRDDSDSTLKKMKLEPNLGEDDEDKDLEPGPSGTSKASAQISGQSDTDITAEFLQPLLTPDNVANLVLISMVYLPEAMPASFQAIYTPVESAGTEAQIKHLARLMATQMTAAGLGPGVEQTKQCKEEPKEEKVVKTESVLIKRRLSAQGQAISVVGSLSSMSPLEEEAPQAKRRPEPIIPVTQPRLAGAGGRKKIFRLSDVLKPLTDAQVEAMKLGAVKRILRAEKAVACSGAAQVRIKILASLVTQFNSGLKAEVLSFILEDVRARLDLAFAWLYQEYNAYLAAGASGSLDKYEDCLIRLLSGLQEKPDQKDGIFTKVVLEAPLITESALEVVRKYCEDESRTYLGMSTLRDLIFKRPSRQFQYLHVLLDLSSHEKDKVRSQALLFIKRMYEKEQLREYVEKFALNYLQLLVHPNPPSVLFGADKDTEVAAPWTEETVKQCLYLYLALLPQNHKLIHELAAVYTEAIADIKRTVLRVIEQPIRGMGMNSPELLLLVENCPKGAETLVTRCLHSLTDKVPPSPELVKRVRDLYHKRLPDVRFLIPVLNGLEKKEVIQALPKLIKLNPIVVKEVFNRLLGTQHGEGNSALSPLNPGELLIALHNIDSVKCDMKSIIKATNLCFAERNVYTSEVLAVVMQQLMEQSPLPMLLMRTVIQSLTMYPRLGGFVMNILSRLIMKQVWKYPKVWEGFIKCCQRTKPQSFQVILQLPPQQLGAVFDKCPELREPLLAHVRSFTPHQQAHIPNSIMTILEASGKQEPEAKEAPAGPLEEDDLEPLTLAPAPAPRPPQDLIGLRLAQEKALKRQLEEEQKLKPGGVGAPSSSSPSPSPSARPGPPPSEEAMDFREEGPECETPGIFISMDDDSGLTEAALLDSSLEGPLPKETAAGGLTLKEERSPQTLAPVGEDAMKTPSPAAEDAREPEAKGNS
B2: Cleavage and polyadenylation specificity factor subunit 2 (Homo sapiens), Q9P2I0 (parent)
chain: B1 chain
partner: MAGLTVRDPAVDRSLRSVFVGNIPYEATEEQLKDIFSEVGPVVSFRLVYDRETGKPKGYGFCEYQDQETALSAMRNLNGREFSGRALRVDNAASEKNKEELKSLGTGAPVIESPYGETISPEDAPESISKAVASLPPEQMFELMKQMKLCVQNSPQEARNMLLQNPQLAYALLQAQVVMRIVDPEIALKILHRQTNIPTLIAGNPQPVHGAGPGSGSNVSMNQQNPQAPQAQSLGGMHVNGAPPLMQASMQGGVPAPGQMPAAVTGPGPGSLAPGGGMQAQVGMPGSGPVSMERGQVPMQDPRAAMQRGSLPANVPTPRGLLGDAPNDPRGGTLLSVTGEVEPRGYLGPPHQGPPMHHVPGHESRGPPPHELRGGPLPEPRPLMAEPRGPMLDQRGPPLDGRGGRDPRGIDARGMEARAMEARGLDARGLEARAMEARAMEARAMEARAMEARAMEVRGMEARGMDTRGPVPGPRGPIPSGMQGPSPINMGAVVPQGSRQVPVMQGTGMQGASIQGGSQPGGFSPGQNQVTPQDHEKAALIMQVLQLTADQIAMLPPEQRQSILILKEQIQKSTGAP

Variants of: B1
Settings: with sympk_human SYMPK

| effect of a mutation on the interaction | Variant |
| --- | --- |
| decreasing interaction | H67A |

Variants of: B2
Settings: with cstf2_human CSTF2, P33240

| effect of a mutation on the interaction | Variant |
| --- | --- |
| disrupting interaction | R543A |
